B1: NEK8 (parent)
chain: YTFGSNQHGQLGTNTRRGSRAPCK
B2: ZNF207 (parent)
chain: CHICHKKLYTGPGLAIHCMQVHKE

Variants of: B1
Experiment: protein stability index of a GFP-peptide fusion (GPS, HEK-293T) (PSI 1-6); higher = more stable
Conditions: c terminus: a fixed tail appended
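Also: lentivirally expressed fusions sorted by FACS into six bins by GFP to DsRed ratio, PSI derived from sequencing read proportions per bin multiplied by bin number.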

Protein stability index of substitutions, site by site:
T2: R 4.75, D 4.43, M 4.5, Q 3.5, V 2.36, F 3.25, H 1.95, C 2.88, I 2.44, W 3.32, G 4.33, S 4.31, N 4.61, P 4.18, E 4.78, K 3.83, A 2.77, Y 4.24, L 3.61
G4: N 3.82, M 3.44, A 3.44, Y 3.42, C 2.91, I 3.72, Q 4.04, R 4.36, V 4.2, W 2.91, L 3.99, E 4.33, H 3.91, S 3.66, K 3.6, T 3.54, D 4.39, P 4.19, F 3.64
N6: G 3.52, R 4.18, V 3.75, Y 3.48, E 4.44, F 2.61, P 4.07, Q 4.21, A 3.94, K 3.44, T 3.54, W 3.06, M 3.44, H 3.75, S 3.86, C 3.78, L 3.29, I 3.6, D 4.24
Q7: I 3.45, E 4.2, H 3.84, G 4.07, A 3.55, D 3.98, C 3.59, F 1.54
Y1: M 4.31, P 4.52, F 3.66, V 4.6, N 5.24, R 4.64, T 4.49, H 4.54, W 4.28, C 4.11, Q 4.99, S 4.89, E 4.47, D 4.96, G 5.09, I 4.34, A 4.81, L 4.13, K 4.79
S5: K 3.5, M 4.11, G 3.86, F 2.23, C 3.72, A 3.63, P 3.84, V 4.09, Y 2.49, I 3.44, N 4.14, E 4.61, T 4.36, D 4.53, H 3.66, R 3.96, W 2.67, Q 4.01, L 3.62
F3: M 4.13, D 4.11, W 2.06, V 3.98, H 3.94, S 3.2, N 3.95, L 3.99, R 3.92, C 3.58, A 3.31, Q 3.69, Y 3.54, G 2.29, K 4.32, P 2.02, T 3.77, I 3.89, E 4.32

Variants of: B2
Experiment: as above
Conditions: c terminus: a fixed tail appended

Protein stability index, by site and new letter:
E24: K 2.65, G 2.55, A 2.66, Q 2.85, R 2.34, C 3.29, W 2.49, N 2.44, H 2.18, V 3.65, Y 2.74, L 2.6, D 2.84, I 3.47, M 2.11, P 2.63, S 3.17, F 2.53, T 2.96
G13: W 2.07, V 2.54, Y 2.12
M19: R 3.41, G 3.41, K 3.93, V 2.94, N 3.9, Q 3.81, A 3.57, H 4.12, E 4.47, F 3.75, P 3.3, I 3.47, T 3.73, D 3.36, Y 2.94, C 4.56, L 2.52, S 4.03, W 2.48
H17: W 3.87, A 2.15, S 3.15, I 2.08

Reference: the supplement of paper PMC10567573
